Broadly, the KD is a measure of binding affinity in units of concentration.

In series [1] the test system is Amp(short)-FAM (α-Amp(short) aptamer) (DNA, aptamer) CACGGCATGGTGGGCGTCGTG
Kind of series: microscale thermophoresis. To be noted: Na+ 50 mM, K+ 5 mM, Mg2+ 5 mM, Ca2+ 2 mM; 20 mM Tris-HCl, 0.1% Tween-20, pH 8.0; second printed KD 600 nM, unexplained. Background: MST reads how a fluorescent partner responds to local heating, with and without ligand.

For series [2], the system named is CRP-FAM (α-CRP aptamer) (DNA, aptamer) ACACGATGGGGGGGTATGATTTGATGTGGTTGTTGCATGATCGTGG
Nature of the series: microscale thermophoresis. Conditions: Na+ 50 mM, K+ 5 mM, Mg2+ 5 mM, Ca2+ 2 mM; 20 mM Tris-HCl, 0.1% Tween-20, pH 8.0; up to 100 µM; no plateau, no fit.

The subject of series [3] is α-Amp-short (α-Amp-short-AuNP) (DNA, aptamer) CACGGCATGGTGGGCGTCGTG
Kind of series: competitive lateral flow assay. Conditions: Na+ 50 mM, K+ 5 mM, Mg2+ 5 mM, Ca2+ 2 mM; 20 mM Tris, 0.1 mM BSA, 1.7% Triton-X-100, pH 8; biotinylated CRP displaced; signal decrease at 185 µg ampicillin.

For series [4], the system named is α-CRP (α-CRP-AuNP) (DNA, aptamer) ACACGATGGGGGGGTATGATTTGATGTGGTTGTTGCATGATCGTGG
Kind of series: competitive lateral flow assay. To be noted: Na+ 50 mM, K+ 5 mM, Mg2+ 5 mM, Ca2+ 2 mM; 20 mM Tris, 0.1 mM BSA, 1.7% Triton-X-100, pH 8; biotinylated CRP displaced; signal decrease at 18.5 µg ampicillin.

In series [5] the target is T1, C-reactive protein (CRP), biotinylated (UniProt P02741 19-224).
T1 sequence: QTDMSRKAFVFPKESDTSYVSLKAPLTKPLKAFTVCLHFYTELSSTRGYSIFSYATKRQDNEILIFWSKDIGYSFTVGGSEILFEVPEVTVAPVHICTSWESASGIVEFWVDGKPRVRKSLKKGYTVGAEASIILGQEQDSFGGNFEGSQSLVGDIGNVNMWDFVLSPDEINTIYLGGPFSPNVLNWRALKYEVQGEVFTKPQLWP
Nature of the series: lateral flow assay (AuNP); 40.5 µg CRP-biotin; test line stronger than α-CRP; LFA: 20 mM Tris, 50 mM NaCl, 5 mM KCl, 5 mM MgCl2, 2 mM CaCl2, 0.1 mM BSA, 1.7% Triton X-100, pH 8, temperature not stated; MST with CRP-biotin: 32.8 mM Tris-HCl, 70.5 mM NaCl, 2.5 mM KCl, 2.5 mM MgCl2, 1.4 mM CaCl2, 0.1% Tween-20, 5 nM FAM-oligo. To be noted: protein: commercial, tags: biotin (NHS-PEG4-Biotin), chain copies: 5, label: 10 nm gold nanoparticle via 5' thiol.

Series [6] deals with T1, C-reactive protein (CRP), biotinylated. Kind of series: MST; binding indicated, no plateau, no Kd fit; CRP-biotin 610 pM-20 µM; LFA: 20 mM Tris, 50 mM NaCl, 5 mM KCl, 5 mM MgCl2, 2 mM CaCl2, 0.1 mM BSA, 1.7% Triton X-100, pH 8, temperature not stated; MST with CRP-biotin: 32.8 mM Tris-HCl, 70.5 mM NaCl, 2.5 mM KCl, 2.5 mM MgCl2, 1.4 mM CaCl2, 0.1% Tween-20, 5 nM FAM-oligo. Conditions: protein: commercial; tags: biotin (NHS-PEG4-Biotin); chain copies: 5; label: 5' FAM; stem-loop (Mfold).

The target is the same in series [7]. Kind of series: lateral flow assay (AuNP); 40.5 µg CRP-biotin; LFA: 20 mM Tris, 50 mM NaCl, 5 mM KCl, 5 mM MgCl2, 2 mM CaCl2, 0.1 mM BSA, 1.7% Triton X-100, pH 8, temperature not stated; MST with CRP-biotin: 32.8 mM Tris-HCl, 70.5 mM NaCl, 2.5 mM KCl, 2.5 mM MgCl2, 1.4 mM CaCl2, 0.1% Tween-20, 5 nM FAM-oligo. Conditions: protein: commercial; tags: biotin (NHS-PEG4-Biotin); chain copies: 5; label: 10 nm gold nanoparticle via 5' thiol; stem-loop (Mfold).

For series [8] the target is unchanged. Nature of the series: lateral flow assay (FAM); 4 µg CRP-biotin; LFA: 20 mM Tris, 50 mM NaCl, 5 mM KCl, 5 mM MgCl2, 2 mM CaCl2, 0.1 mM BSA, 1.7% Triton X-100, pH 8, temperature not stated; MST with CRP-biotin: 32.8 mM Tris-HCl, 70.5 mM NaCl, 2.5 mM KCl, 2.5 mM MgCl2, 1.4 mM CaCl2, 0.1% Tween-20, 5 nM FAM-oligo. Conditions: protein: commercial; tags: biotin (NHS-PEG4-Biotin); chain copies: 5; label: 5' FAM.

On to `CC1(C)S[C@@H]2[C@H](NC(=O)[C@H](N)c3ccccc3)C(=O)N2[C@H]1C(=O)O`, for which the KD in series [1] amounted to 263 nM. Moreover, the binding result in series [2], in series [3] and in series [4] was “yes” each time.

Take TTTTTTTTTTTTTTTCACGGCATGGTGGGCGTCGTG (ssDNA, 5' SH-(C6H12) thiol) [α-Amp-poly(T) (AuNP conjugate)]: the binding result in series [5] is recorded as “binds”. As to ACACGATGGGGGGGTATGATTTGATGTGGTTGTTGCATGATCGTGG (ssDNA) [CRP-FAM], the binding result in series [6] was “binds”.

In the case of ACACGATGGGGGGGTATGATTTGATGTGGTTGTTGCATGATCGTGG (ssDNA, 5' SH-(C6H12) thiol) [α-CRP (AuNP conjugate)], the binding result in series [7] is given as “binds”. For the molecule CACGGCATAGACCGCGTCGTG (ssDNA) [Amp(short) w/o TGG-FAM], the binding result in series [8] is “binds”.

In the case of CACGGCATGGTGGGCGTCGTG (ssDNA) [Amp(short)-FAM], in series [6], the binding result is reported as “binds”. Regarding CACGGCATGGTGGGCGTCGTG (ssDNA, 5' SH-(C6H12) thiol) [α-Amp-short (AuNP conjugate)], the binding result in series [5] (stem-loop (Mfold)) is on record as “binds”. ACACGAACCGGGCCAATGATTTGATGACCTTGTTGCATGATCGTAG (ssDNA) [CRP w/o TGG-FAM]: the binding result in series [8] is on record as “binds”.

Values taken from article PMC5884802.
